pEC50: −log10 of the molar value.
Biological target: recombinant human PD-L1-mFc fusion protein (human) (UniProt Q9NZQ7)
Test: ELISA, human PD-L1-mFc immobilised (1 µg/mL), anti-human kappa-HRP detection

recombinant human PD-L1-mFc fusion protein (human), sequence (Q9NZQ7 19-238): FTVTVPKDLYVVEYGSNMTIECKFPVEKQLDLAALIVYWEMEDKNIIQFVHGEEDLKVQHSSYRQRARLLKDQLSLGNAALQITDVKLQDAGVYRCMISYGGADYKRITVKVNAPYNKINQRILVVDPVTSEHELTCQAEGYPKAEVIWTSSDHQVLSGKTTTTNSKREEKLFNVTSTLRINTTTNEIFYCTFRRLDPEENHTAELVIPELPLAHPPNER

- pEC50: 9.97
Substance: Avelumab/TGFβR (antibody)
